The values below are quoted from earlier work in PMC7432558.

In the series the target is TEAD1 (Homo sapiens) (UniProt P28347).
Chain of UniProt P28347 (P28347 whole entry): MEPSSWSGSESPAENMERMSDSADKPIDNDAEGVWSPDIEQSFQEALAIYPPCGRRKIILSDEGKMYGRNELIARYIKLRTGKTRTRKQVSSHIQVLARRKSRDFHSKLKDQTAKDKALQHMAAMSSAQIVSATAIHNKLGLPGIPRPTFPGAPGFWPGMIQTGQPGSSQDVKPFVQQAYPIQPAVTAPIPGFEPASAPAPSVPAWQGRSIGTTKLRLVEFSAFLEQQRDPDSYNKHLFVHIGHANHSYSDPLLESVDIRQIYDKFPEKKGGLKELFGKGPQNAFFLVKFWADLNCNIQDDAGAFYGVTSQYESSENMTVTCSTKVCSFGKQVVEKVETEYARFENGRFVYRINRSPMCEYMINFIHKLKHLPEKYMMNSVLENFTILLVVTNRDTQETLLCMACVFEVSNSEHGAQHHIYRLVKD

Take “YAP-derived cyclic peptide 81-100 (from UniProt P46937)”: the Kd (usually the equilibrium constant for the complex coming apart) was 15 nM.
